Experimental findings from the supplement of paper PMC12764529 are described below.

± gives the half width of the 95% confidence interval.

Data set [1] in a line: folding stability dG unfold from chymotrypsin proteolysis; higher = more stable. Put shortly: (§1)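 Unfolding free energy was derived, per protease or combined, against a sequence-predicted unfolded-state K50 and a shared folded-state K50, starting from K50 inferred by Bayesian fitting of sequencing counts. Digestion with trypsin and chymotrypsin was carried out on designed mini-proteins under 80 residues without cysteine in a PA-tagged cDNA display construct. Only designs with AlphaFold2 dimer inter-PAE above 15 were kept.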

Data set [2] can be described thus: folding stability dG unfold from trypsin proteolysis; higher = more stable. Put shortly:
as §1

Data set [3] can be described thus: folding stability dG unfold (combined trypsin and chymotrypsin); higher = more stable. Put shortly:
as §1

On to “SAGGSAGGSAGGSKAKKITIWIPPGNINPEVKDQLQKEGINIEIQPIPAKRDPDGKPRWSAGGSAGGSAGGS [r4_294_TrROS]”, for which the “folding stability dG unfold” value was 5.01 ± 0.151 kJ/mol in data set [1], -2.33 ± 1.42 kJ/mol in data set [2] and 3.39 ± 0.586 kJ/mol in data set [3].
As to “SAGGSAGGSAGGSKKIKIKVPPGARVRLKNGKWFSVEDIEKLKELGIKEIEIEKLPPKKSAGGSAGGSAGGS [r4_47_TrROS_Hall]”, the “folding stability dG unfold” value in data set [1] was 4.72 ± 0.377 kJ/mol; in data set [2], 2.8 ± 0.155 kJ/mol; in data set [3], 4.18 ± 0.339 kJ/mol.
On to “SAGGSAGGSAGGSKKIVIRVKDKDGNEREIVLEVPEEELTEEEIAELAKKFPNAEIEVLSAGGSAGGSAGGS [r4_422_TrROS_Hall]”, for which the entries for the “folding stability dG unfold” value in data set [1], in data set [2] and in data set [3] were 4.26 ± 0.222 kJ/mol, 10.4 ± 0.544 kJ/mol and 8.2 ± 0.544 kJ/mol, respectively.
Take “SAGGSAGGSAGGSKKIYLIKIEIEKKITYDKKTKELKIEEKIKIKIEPLSEEDLEKLLKSAGGSAGGSAGGS [r4_274_TrROS_Hall]”: the “folding stability dG unfold” value came to 16 ± 0.753 kJ/mol in data set [1], 12.4 ± 1.05 kJ/mol in data set [2] and 15.4 ± 1.92 kJ/mol in data set [3].
The matching figures for “SAGGSAGGSAGGSKKTITLDIKVNGYLVKVKLNLETNKLEIVEVYKVSPEKKKLSPKDKSAGGSAGGSAGGS [r4_21_TrROS_Hall]”: 9.73 ± 0.285 kJ/mol, 3.45 ± 0.121 kJ/mol and 8.09 ± 0.418 kJ/mol.
The matching figures for “SAGGSAGGSAGGSKKTITVTVLFKDKNGKPVYIAKAKVTLNENGEETIEITEIYPLEDLSAGGSAGGSAGGS [r4_117_TrROS_Hall]”: 9.88 ± 0.628 kJ/mol, 7.54 ± 0.502 kJ/mol and 9.78 ± 1.13 kJ/mol.
For the sequence “SAGGSAGGSAGGSKKTLTLPITITVTVTYTNEDGSTTETTYTYTLTINFEVSENDTGLLSAGGSAGGSAGGS [r10_1133_TrMRF]”, the “folding stability dG unfold” value is 13.68 ± 0.0544 kJ/mol in data set [1], 9.33 ± 0.259 kJ/mol in data set [2] and 12.2 ± 0.297 kJ/mol in data set [3].
As to “SAGGSAGGSAGGSKLKIELNEDGTLRIVNEDTNEVYEIKLELPPPPPVETEVKYVSLEDLSAGGSAGGSAGG [r11_352_TrROS_Hall]”, the “folding stability dG unfold” value in data set [1] is 3.52 ± 1.09 kJ/mol; in data set [2], 2.53 ± 0.753 kJ/mol; in data set [3] it was 1.97 ± 1.3 kJ/mol.
Take “SAGGSAGGSAGGSKMYKIKIVNKKTKKVITVEVSEEDIEKALEAAKKAGVEKIEIEEVPSAGGSAGGSAGGS [r4_102_TrROS_Hall]”: the “folding stability dG unfold” value was 7.1 ± 0.502 kJ/mol in data set [1], 8.5 ± 0.711 kJ/mol in data set [2] and 7.6 ± 0.544 kJ/mol in data set [3].
The corresponding values for “SAGGSAGGSAGGSKYIVIRIPGSVDELIDYLRDSGFKIKIESVEYDPPNGEFYVVFKIKSAGGSAGGSAGGS [r4_315_TrROS]” are 12.82 ± 0.105 kJ/mol, 10.6 ± 0.305 kJ/mol and 12 ± 0.218 kJ/mol.
As for “SAGGSAGGSAGGSKYVVIRVKKSVDELKDALKKAGFKVKIVSVYYDKENKEIYVVVKIESAGGSAGGSAGGS [r4_315_TrROS_Hall]”, the “folding stability dG unfold” value in data set [1] was 18.6 ± 0.586 kJ/mol; in data set [2], 15.5 ± 0.628 kJ/mol; in data set [3] it was 17.4 ± 0.711 kJ/mol.
As to “SAGGSAGGSAGGSLIVPAKDAVRFAEEWRRRFGGRFEIRGIPGIPFVPILVRPPDPAEFSAGGSAGGSAGGS [r4_419_TrMRF]”, the entries for the “folding stability dG unfold” value in data set [1], in data set [2] and in data set [3] were 2.94 ± 0.402 kJ/mol, -1.75 ± 1.59 kJ/mol and 2.05 ± 0.406 kJ/mol, respectively.
With “SAGGSAGGSAGGSLPFLKAKFTFTVRATVTVTVTDDDGKTTTEEFELETTVTVTLEPKPSAGGSAGGSAGGS [r4_162_TrROS_Hall]”, the figures for the “folding stability dG unfold” value in data set [1], in data set [2] and in data set [3] were 14.4 ± 0.293 kJ/mol, 12 ± 0.628 kJ/mol and 13 ± 0.837 kJ/mol, respectively.
With “SAGGSAGGSAGGSLSSNGSSLPPVPPAPVTDEPVEFPTPVLVTVSYYPLTGERRVEVLLSAGGSAGGSAGGS [r4_305_JUSTAS]”, the “folding stability dG unfold” value was 1.14 ± 0.293 kJ/mol in data set [1], -1.22 ± 0.159 kJ/mol in data set [2] and 0.744 ± 0.285 kJ/mol in data set [3].
Consider “SAGGSAGGSAGGSMEFEVAEVFPDGWVVLRFPDGSRYRARLALDPETGEAKLLSLEPLPSAGGSAGGSAGGS [r4_247_TrMRF]”, for which the figures for the “folding stability dG unfold” value in data set [1], in data set [2] and in data set [3] were 18.5 ± 0.297 kJ/mol, 13.7 ± 0.322 kJ/mol and 17.4 ± 0.837 kJ/mol, respectively.
The corresponding values for “SAGGSAGGSAGGSMEITVETYPEVPLVRFTLPGGELVLLPVPPDVPEEEIRALAEALLASAGGSAGGSAGGS [r10_33_JUSTAS]” are 3.49 ± 0.628 kJ/mol, 3.75 ± 0.105 kJ/mol and 3.66 ± 0.502 kJ/mol.
Turning to “SAGGSAGGSAGGSMITLKIPPSKPEEAEKLAKSLGAELKSFDPNTGVVDINSPPGASLESAGGSAGGSAGGS [r4_3_JUSTAS]”, the “folding stability dG unfold” value in data set [1] was -5.66 ± 3.1 kJ/mol; in data set [2] it was -5.21 ± 2.43 kJ/mol; in data set [3], -3.88 ± 0.962 kJ/mol.
With “SAGGSAGGSAGGSMIVITTEGEEVRNSLPSSYNILETKEDPSVPSYTYDIKKPGTGKEESAGGSAGGSAGGS [r4_435_JUSTAS]”, the “folding stability dG unfold” value in data set [1] was -4.1 ± 2.97 kJ/mol; in data set [2] it was -6.49 ± 1.59 kJ/mol; in data set [3], below -4.18 kJ/mol.
As to “SAGGSAGGSAGGSMIVLNVPREVAEKIKEELIKKGIDPEKVKVIYIEVPLPEEPPESILSAGGSAGGSAGGS [r10_602_JUSTAS]”, the entries for the “folding stability dG unfold” value in data set [1], in data set [2] and in data set [3] were 1.47 ± 0.414 kJ/mol, 3.34 ± 0.28 kJ/mol and 2.29 ± 0.669 kJ/mol, respectively.
For “SAGGSAGGSAGGSMKTVELSSEEEAKKIVEEAKKKGIPLTLVLTDPKTGNPKTFEFPLASAGGSAGGSAGGS [r4_188_JUSTAS]”, the results for the “folding stability dG unfold” value in data set [1], in data set [2] and in data set [3] were -1.04 ± 1.72 kJ/mol, -0.891 ± 0.92 kJ/mol and 0.238 ± 2.01 kJ/mol, respectively.
As for “SAGGSAGGSAGGSMKVEKLPDGKLLVFDVDTKEWKEIDVEDAEVVLDEDNGRAIVRIKPSAGGSAGGSAGGS [r4_127_TrROS_Hall]”, the “folding stability dG unfold” value in data set [1] was 7.35 ± 0.318 kJ/mol; in data set [2], -0.723 ± 0.669 kJ/mol; in data set [3] it was 3.78 ± 1.17 kJ/mol.
In the case of “SAGGSAGGSAGGSMKVILDKKNNELYILLKDENGKLLLAKITLLPNGEIKIEVYDLKDLSAGGSAGGSAGGS [r4_434_TrROS_Hall]”, the figures for the “folding stability dG unfold” value in data set [1], in data set [2] and in data set [3] were 16.7 ± 0.418 kJ/mol, 9.49 ± 0.276 kJ/mol and 14.9 ± 0.544 kJ/mol, respectively.
As for “SAGGSAGGSAGGSMLVTEVSISPLPNGTVKVTTKLVLEPPDGVSVLEEESSVVSPEELSSAGGSAGGSAGGS [r4_389_JUSTAS]”, the “folding stability dG unfold” value in data set [1] worked out at 2.87 ± 0.172 kJ/mol; in data set [2], 0.458 ± 0.117 kJ/mol; in data set [3] it was 2.03 ± 0.414 kJ/mol.
The corresponding values for “SAGGSAGGSAGGSMPEGTVLSVDPSTGLKVVYFPGENKLVFEEISPSNELVKRSEFPLSSAGGSAGGSAGGS [r4_192_JUSTAS]” are 1.82 ± 0.305 kJ/mol, -0.487 ± 0.586 kJ/mol and 0.626 ± 0.544 kJ/mol.
The matching figures for “SAGGSAGGSAGGSMPIPYKIDSIEYYPPYPYYTLNVTGPENKPYTIIMSPENLENATIESAGGSAGGSAGGS [r4_51_TrMRF]”: 2.54 ± 0.795 kJ/mol, 5.97 ± 0.502 kJ/mol and 4.38 ± 0.962 kJ/mol.
On to “SAGGSAGGSAGGSMSTINFPSKEEIEAYLKKLGLKNVKLPWYPNNNVMDTSDIEKDILESAGGSAGGSAGGS [r4_101_JUSTAS]”, for which the “folding stability dG unfold” value was found to be 5.39 ± 0.126 kJ/mol in data set [1], 4.17 ± 0.092 kJ/mol in data set [2] and 4.76 ± 0.243 kJ/mol in data set [3].
On to “SAGGSAGGSAGGSMSVVVTVKDPRTGSTTTVTVSPAEVEEAIEEAKKKGYSVVTVSEGGSAGGSAGGSAGGS [r4_102_JUSTAS]”, for which the “folding stability dG unfold” value in data set [1] came out at 5.98 ± 0.1 kJ/mol; in data set [2], 7.69 ± 0.418 kJ/mol; in data set [3], 7.01 ± 0.356 kJ/mol.
On to “SAGGSAGGSAGGSMTIIVKTEEEAKQLAERLKKELEELGLLENLKIEIKVIPEEDLPPESAGGSAGGSAGGS [r4_472_TrROS_Hall]”, for which the “folding stability dG unfold” value amounted to 9.74 ± 0.218 kJ/mol in data set [1], 5.39 ± 0.331 kJ/mol in data set [2] and 8.74 ± 0.335 kJ/mol in data set [3].
In the case of “SAGGSAGGSAGGSMTLVIKNGIGYTVIKIKVEYDEETGEFSFELEIETKPVPPNYPVPASAGGSAGGSAGGS [r4_215_TrMRF]”, the “folding stability dG unfold” value stood at 18.3 ± 1.38 kJ/mol in data set [1], 12.6 ± 1.38 kJ/mol in data set [2] and 16.7 ± 2.47 kJ/mol in data set [3].
Take “SAGGSAGGSAGGSMTTLNLTNMSPEEIEAALKANPGPVTVTTTLPGGEITTKTYTVPPGSAGGSAGGSAGGS [r10_514_JUSTAS]”: the “folding stability dG unfold” value in data set [1] was 2.69 ± 0.502 kJ/mol; in data set [2] it was -0.079 ± 0.197 kJ/mol; in data set [3], 1.77 ± 0.347 kJ/mol.
Take “SAGGSAGGSAGGSMVITMTEEEIKALLPPGAKVKVEVVEDEETKEKFVRVEVYPAKEEESAGGSAGGSAGGS [r4_119_TrROS_Hall]”: the “folding stability dG unfold” value in data set [1] is -1.79 ± 0.628 kJ/mol; in data set [2], 0.258 ± 0.247 kJ/mol; in data set [3], 0.356 ± 0.879 kJ/mol.
Turning to “SAGGSAGGSAGGSMVKILIEKENELYEIYVPKDEIPLDELVKKAKELFPDIVKIEVFDDSAGGSAGGSAGGS [r4_235_TrMRF]”, the “folding stability dG unfold” value in data set [1] turned out to be 4.59 ± 0.126 kJ/mol; in data set [2] it was 3.36 ± 0.163 kJ/mol; in data set [3] it was 4.04 ± 0.402 kJ/mol.
“SAGGSAGGSAGGSMVKISKEPDRLTITITPGNTPLVFESTEPISEEEFVEKAKKENPLISAGGSAGGSAGGS [r4_191_JUSTAS]”: the “folding stability dG unfold” value in data set [1] came out at 4.31 ± 0.155 kJ/mol; in data set [2] it was 0.901 ± 0.544 kJ/mol; in data set [3] it was 2.75 ± 0.711 kJ/mol.
With “SAGGSAGGSAGGSMVSVEEFEVELPGGSKVKATVLIDPEGPLTVLLGDETFILPKEELGSAGGSAGGSAGGS [r10_649_JUSTAS]”, the results for the “folding stability dG unfold” value in data set [1], in data set [2] and in data set [3] were -0.959 ± 0.795 kJ/mol, -0.92 ± 0.837 kJ/mol and -0.492 ± 0.544 kJ/mol, respectively.
Consider “SAGGSAGGSAGGSMVVEFSVGDTPIATIPFPGTEEEAKAAVEKLKEEYPSAEVKFTVHDESAGGSAGGSAGG [r7_81_JUSTAS]”, for which the “folding stability dG unfold” value in data set [1] was 0.707 ± 0.314 kJ/mol; in data set [2] it was 1.97 ± 0.13 kJ/mol; in data set [3] it was 1.43 ± 0.586 kJ/mol.
In the case of “SAGGSAGGSAGGSMYTAEPSVVLLPDGTLRTVTRYTFPDGSVTSETATSPLSPDDPALLSAGGSAGGSAGGS [r4_144_JUSTAS]”, the “folding stability dG unfold” value is 3.97 ± 0.414 kJ/mol in data set [1], -0.223 ± 0.418 kJ/mol in data set [2] and 2.67 ± 0.364 kJ/mol in data set [3].
